Patent publication WO2023190852A1 (dated 2023)

What was measured:
[1] = target: RBD derived from the Omicron strain (BA.4 and BA.5 strains) (SARS-CoV-2)
[2] = target: RBD derived from the Omicron strain (BA.1 strain; B.1.1.529) (SARS-CoV-2)
[3] = target: spike protein (RBD region) derived from the South African mutant strain (BA.4 strain) (SARS-CoV-2)

B1: natural human IgG antibody (HIG001697) (antibody, V domains shown)
VH: EVQLVESGGGLVQPGGSLRLSCTASEIIVTRNYMTWVRQAPGKGLEWVAQIYPGGTTYYADSVKGRFTISRHNSMNTMYLQMNSLRTEDTAVYYCARSRGGVDDFWGQGTLVTVSS
VL: DIQMTQSPSSLSASVGDRVTITCQASQDINKFLNWYQQKPGHAPKLLIYDALNLEAGVPSRFSGSASGTYFTFTITSLQPEDIATYYCQQYDNIPPTYGGGTKVDIKR
B1 gave a Kd [1] of 9.96 nM, a Kd [2] of 1.33 nM and a Kd [3] of 0.282 nM.
